# Measured values from patent US20180057604A1 (Genentech, published 2018).
# Residue numbers refer to the chain shown, from its start. In names and notes the source's numbering stands.
# T1: cyno TfR extracellular domain (analogous construct to human TfR ecd) (cynomolgus monkey, UniProt Q5RDH6 87-760 (Pongo abelii entry))
# T1 construct: also called cynoTfR ecd
# T1 chain: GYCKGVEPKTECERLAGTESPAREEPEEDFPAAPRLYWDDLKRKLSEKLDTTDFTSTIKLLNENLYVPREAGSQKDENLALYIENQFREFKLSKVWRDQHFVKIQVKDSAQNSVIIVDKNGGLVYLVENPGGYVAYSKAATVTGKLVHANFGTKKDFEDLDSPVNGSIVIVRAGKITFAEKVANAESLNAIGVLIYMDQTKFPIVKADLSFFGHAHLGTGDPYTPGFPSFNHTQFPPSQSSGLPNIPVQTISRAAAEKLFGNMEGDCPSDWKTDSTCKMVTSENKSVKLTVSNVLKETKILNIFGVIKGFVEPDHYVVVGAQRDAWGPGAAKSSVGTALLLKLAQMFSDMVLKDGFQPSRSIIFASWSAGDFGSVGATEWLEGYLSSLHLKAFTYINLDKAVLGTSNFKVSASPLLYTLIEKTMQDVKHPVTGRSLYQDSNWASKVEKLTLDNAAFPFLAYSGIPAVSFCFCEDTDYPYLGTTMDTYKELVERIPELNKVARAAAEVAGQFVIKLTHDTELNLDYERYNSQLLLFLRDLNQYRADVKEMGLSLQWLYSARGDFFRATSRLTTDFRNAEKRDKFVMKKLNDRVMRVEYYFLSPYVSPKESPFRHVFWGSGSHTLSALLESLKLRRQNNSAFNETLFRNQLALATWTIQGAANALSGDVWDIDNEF
# B1: 5543 (antibody, V domains shown)
# VH: QLQLQESGPGLVKPSETLSLTCTVSGGSISSSSYYWGWIRQPPGKGLEWIGSIYYSGSTYYNPSLKSRVTISVDTSKNQFSLKLSSVTAADTAVYYCARVGHGISYFDLWGRGTLVTVSS
# VL: EIVLTQSPATLSLSPGERATLSCRASQSVSSYLAWYQQKPGQAPRLLIYDASNRATGIPARFSGSGSGTDFTLTISSLEPEDFAVYYCQQAYVWPPRTFGGGTKVEIK
# B2: 5643 (antibody, V domains shown)
# VH: B1 VH
# VL: B1 VL with A91S, Y92L, V93T
# B3: 5902 (antibody, V domains shown)
# VH: B1 VH with Y55R, Y60W
# VL: B1 VL with N53K, A91V, V93T
# B4: hu15G11.v5 IgG Ala variant D27A (HVR-L1) (antibody, V domains shown)
# VH: EVQLVQSGAEVKKPGASVKVSCKASGYTFTSYWMHWVRQAPGQRLEWIGEINPTNGRTNYIEKFKSRATLTVDKSASTAYMELSSLRSEDTAVYYCARGTRAYHYWGQGTMVTVSS
# VL: DIQMTQSPSSLSASVGDRVTITCRASANLYSNLAWYQQKPGKSPKLLVYDATNLADGVPSRFSGSGSGTDYTLTISSLQPEDFATYYCQHFWGTPLTFGQGTKVEIK
# notes: IgG in cell culture supernatant
# B5: hu15G11.v5 IgG Ala variant L54A (HVR-L2) (antibody, V domains shown)
# VH: B4 VH
# VL: B4 VL with A27D, L54A
# notes: as for B4
# B6: hu15G11.v5 IgG Ala variant N28A (HVR-L1) (antibody, V domains shown)
# VH: B4 VH
# VL: B4 VL with A27D, N28A
# notes: as for B4
# B7: hu15G11.v5 IgG Ala variant L29A (HVR-L1) (antibody, V domains shown)
# VH: B4 VH
# VL: B4 VL with A27D, L29A
# notes: as for B4
# B8: hu15G11.v5 IgG Ala variant F29A (HVR-H1) (antibody, name in Kabat numbering, V domains shown)
# VH: B4 VH with F29A
# VL: B4 VL with A27D
# notes: as for B4
# B9: hu15G11.v5 IgG Ala variant D56A (HVR-L2) (antibody, V domains shown)
# VH: B4 VH
# VL: B4 VL with A27D, D56A
# notes: as for B4
# B10: hu15G11.v5 IgG Ala variant I60A (HVR-H2) (antibody, name in Kabat numbering, V domains shown)
# VH: B4 VH with I61A
# VL: B4 VL with A27D
# notes: IgG in cell culture supernatant; Kabat numbers after 52a lie one below the linear count
# B11: hu15G11.v5 IgG Ala variant S31A (HVR-L1) (antibody, V domains shown)
# VH: B4 VH
# VL: B4 VL with A27D, S31A
# notes: IgG in cell culture supernatant; also called S31A (light chain)
# B12: hu15G11.v5 IgG Ala variant N53A (HVR-L2) (antibody, V domains shown)
# VH: B4 VH
# VL: B4 VL with A27D, N53A
# notes: as for B4
# B13: hu15G11.v5 IgG Ala variant S65A (HVR-H2) (antibody, name in Kabat numbering, V domains shown)
# VH: B4 VH with S66A
# VL: B4 VL with A27D
# notes: as for B10
# B14: hu15G11.v5 IgG Ala variant G26A (HVR-H1) (antibody, name in Kabat numbering, V domains shown)
# VH: B4 VH with G26A
# VL: B4 VL with A27D
# notes: as for B4
# B15: hu15G11.v5 IgG Ala variant D50A (HVR-L2) (antibody, V domains shown)
# VH: B4 VH
# VL: B4 VL with A27D, D50A
# notes: as for B4
# B16: hu15G11.v5 IgG Ala variant N58A (HVR-H2) (antibody, name in Kabat numbering, V domains shown)
# VH: B4 VH with N59A
# VL: B4 VL with A27D
# notes: as for B10
# B17: hu15G11.v5 IgG Ala variant N32A (HVR-L1) (antibody, V domains shown)
# VH: B4 VH
# VL: B4 VL with A27D, N32A
# notes: as for B4
# B18: hu15G11.v5 IgG Ala variant S26A (HVR-L1) (antibody, V domains shown)
# VH: B4 VH
# VL: B4 VL with S26A, A27D
# notes: as for B4
# B19: hu15G11.v5 IgG Ala variant R24A (HVR-L1) (antibody, V domains shown)
# VH: B4 VH
# VL: B4 VL with R24A, A27D
# notes: as for B4
# B20: hu15G11.v5 IgG Ala variant P52aA (HVR-H2) (antibody, name in Kabat numbering, V domains shown)
# VH: B4 VH with P53A
# VL: B4 VL with A27D
# notes: as for B4
# B21: hu15G11.v5 IgG Ala variant E61A (HVR-H2) (antibody, name in Kabat numbering, V domains shown)
# VH: B4 VH with E62A
# VL: B4 VL with A27D
# notes: as for B10
# B22: hu15G11.v5 IgG Ala variant S31A (HVR-H1) (antibody, name in Kabat numbering, V domains shown)
# VH: B4 VH with S31A
# VL: B4 VL with A27D
# notes: IgG in cell culture supernatant; also called S31A (heavy chain)
# B23: hu15G11.v5 IgG Ala variant M34A (HVR-H1) (antibody, name in Kabat numbering, V domains shown)
# VH: B4 VH with M34A
# VL: B4 VL with A27D
# notes: as for B4
# B24: hu15G11.v5 IgG Ala variant F63A (HVR-H2) (antibody, name in Kabat numbering, V domains shown)
# VH: B4 VH with F64A
# VL: B4 VL with A27D
# notes: as for B10
# B25: hu15G11.v5 IgG Ala variant I51A (HVR-H2) (antibody, name in Kabat numbering, V domains shown)
# VH: B4 VH with I51A
# VL: B4 VL with A27D
# notes: as for B4
# B26: hu15G11.v5 IgG Ala variant G49A (HVR-H2) (antibody, name in Kabat numbering, V domains shown)
# VH: B4 VH with G49A
# VL: B4 VL with A27D
# notes: as for B4
# B27: hu15G11.v5 IgG Ala variant N52A (HVR-H2) (antibody, V domains shown)
# VH: B4 VH with N52A
# VL: B4 VL with A27D
# notes: IgG in cell culture supernatant; also called 15G11.N52A; 15G11.52A
# B28: hu15G11.v5 IgG Ala variant R56A (HVR-H2) (antibody, name in Kabat numbering, V domains shown)
# VH: B4 VH with R57A
# VL: B4 VL with A27D
# notes: as for B10
# B29: hu15G11.v5 IgG Ala variant L33A (HVR-L1) (antibody, V domains shown)
# VH: B4 VH
# VL: B4 VL with A27D, L33A
# notes: as for B4
# B30: hu15G11.v5 IgG Ala variant K64A (HVR-H2) (antibody, name in Kabat numbering, V domains shown)
# VH: B4 VH with K65A
# VL: B4 VL with A27D
# notes: as for B10
# B31: hu15G11.v5 IgG Ala variant K62A (HVR-H2) (antibody, name in Kabat numbering, V domains shown)
# VH: B4 VH with K63A
# VL: B4 VL with A27D
# notes: as for B10
# B32: hu15G11.v5 IgG Ala variant E50A (HVR-H2) (antibody, name in Kabat numbering, V domains shown)
# VH: B4 VH with E50A
# VL: B4 VL with A27D
# notes: as for B4
# B33: 6266.15 Fab (Fab, V domains shown)
# VH: QVQLVQSGAEVKKPGSSVKVSCKASGGTLSGYGVSWVRQAPGQGLEWMGNIIPGFGTANYAQKFQGRVTITADESTSTAYMELSSLRSEDTAVYYCARSGGTKYGELDVWGQGTMVTVSS
# VL: EIVMTQSPATLSVSPGERATLSCRASQSVSSNLAWYQQKPGQAPRLLIYGASTRATGIPARFSGSGSGTEFTLTISSLQSEDFAVYYCQQLILWPPRTFGGGTKVEIK
# Biological target: BACE1 (HTRF long substrate and FRET short substrate assays of Example 9D)
# Assay: cell-based or functional assay
"EC50, FRET short substrate [nM]","EC50, HTRF long substrate [nM]",Binder
9.11,30,B1
1.41,17.7,B2

# Biological target: BACE1 in primary mouse cortical neurons (mouse, UniProt P56818 46-501)
# Assay: cell-based or functional assay
# Sequence of BACE1 in primary mouse cortical neurons (P56818 46-501): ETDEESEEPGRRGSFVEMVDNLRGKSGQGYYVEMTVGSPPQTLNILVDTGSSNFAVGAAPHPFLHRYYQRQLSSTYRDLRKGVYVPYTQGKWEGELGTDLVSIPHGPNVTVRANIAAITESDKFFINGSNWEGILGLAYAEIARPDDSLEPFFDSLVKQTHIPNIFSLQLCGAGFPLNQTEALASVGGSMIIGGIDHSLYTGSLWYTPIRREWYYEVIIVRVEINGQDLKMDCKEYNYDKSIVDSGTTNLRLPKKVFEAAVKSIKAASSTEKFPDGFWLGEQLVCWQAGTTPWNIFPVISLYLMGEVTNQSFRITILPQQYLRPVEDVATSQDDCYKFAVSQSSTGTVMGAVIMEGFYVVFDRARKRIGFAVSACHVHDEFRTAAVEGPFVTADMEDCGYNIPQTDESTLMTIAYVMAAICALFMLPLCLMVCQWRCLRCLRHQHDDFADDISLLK
"IC50, Abeta x-40 in mouse cortical neurons [nM]",maximal % inhibition of Abeta x-40 [%],Binder
18.3,65,B1
9.71,60,B2
1.59,67,B3

# Biological target: T2, human TfR extracellular domain with N-terminal His tag (human, UniProt P02786 89-760)
# T2 construct: Biotinylated in some assays; also called huTfR; HuTfR
# Assay: ELISA, TfR-coated plate, IgG in culture supernatant;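 also: human or cynomolgus TfR coated at 2 µg/mL, supernatant IgG titrated in 1:5 steps for 1 h, bound antibody read with HRP anti-human Fcγ and TMB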
# Experimental: (§1) The Hu/Cy binding ELISA was performed in maxisorp plates coated with 2 μg/ml of purified human or cyno TfR in PBS at 4° C. overnight. Plates were washed with PBS/0.05% Tween 20 and blocked using Superblock blocking buffer in PBS (Thermo Scientific, Hudson, N.H.). Cell culture supernatants containing the expressed Ala scan variant IgGs were serially diluted 1:5 and added to the wells for 1 h. Plates were washed with PBS/0.05% Tween 20 and 1:1000 diluted HRP-Goat-anti human Fcγ (Jackson ImmunoResearch) was added the plate and incubated for 1 hour at room temperature. Plates were washed with PBS/0.05% Tween 20 and detected using TMB substrate (BioFX Laboratories, Owings Mills).
# T2 sequence (P02786 89-760 G142S): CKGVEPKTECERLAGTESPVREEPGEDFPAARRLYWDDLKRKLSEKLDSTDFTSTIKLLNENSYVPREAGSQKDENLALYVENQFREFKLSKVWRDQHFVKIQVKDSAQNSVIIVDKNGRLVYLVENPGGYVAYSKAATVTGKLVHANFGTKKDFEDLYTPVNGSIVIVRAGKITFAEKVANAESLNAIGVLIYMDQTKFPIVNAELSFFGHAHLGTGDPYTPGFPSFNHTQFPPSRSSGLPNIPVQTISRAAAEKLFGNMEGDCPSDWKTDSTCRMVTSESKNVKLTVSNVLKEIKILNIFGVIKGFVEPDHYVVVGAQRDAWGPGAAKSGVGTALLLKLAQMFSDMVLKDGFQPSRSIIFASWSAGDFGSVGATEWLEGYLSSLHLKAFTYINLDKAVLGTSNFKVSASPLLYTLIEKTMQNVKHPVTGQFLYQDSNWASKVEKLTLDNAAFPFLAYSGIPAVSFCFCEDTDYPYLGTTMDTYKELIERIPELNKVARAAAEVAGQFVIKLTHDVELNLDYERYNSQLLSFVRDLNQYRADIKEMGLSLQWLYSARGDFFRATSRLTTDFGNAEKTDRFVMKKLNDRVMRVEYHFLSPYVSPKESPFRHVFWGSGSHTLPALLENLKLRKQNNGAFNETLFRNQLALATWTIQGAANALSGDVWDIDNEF
row,EC50 [ng/mL],Binder
1,0.2,B4
2,0.4,B5
3,0.2,B6
4,0.3,B7
5,1.5,B8
6,0.3,B9
7,0.3,B10
8,0.3,B11
9,0.3,B12
10,0.2,B13
11,1.1,B14
12,0.2,B15
13,6.3,B16
14,1.6,B17
15,0.2,B18
16,0.1,B19
17,3.9,B20
18,0.2,B21
19,0.05,B22
20,0.4,B23
21,0.4,B24
22,0.2,B25
23,0.3,B26
24,0.3,B27
25,55.1,B28
26,0.05,B29
27,0.3,B30
28,0.3,B31

# Biological target: T1, cyno TfR extracellular domain …
# Assay: as above
# Experimental: as §1
row,EC50 [ng/mL],Binder
1,0.8,B4
2,0.5,B5
3,0.8,B6
4,0.9,B7
5,0.5,B9
6,0.7,B10
7,0.7,B11
8,410,B32
9,0.6,B12
10,0.7,B13
11,6.1,B14
12,0.5,B15
13,80.4,B16
14,4,B17
15,0.6,B18
16,0.4,B19
17,8.1,B20
18,0.6,B21
19,0.1,B22
20,1.1,B23
21,0.6,B24
22,0.6,B25
23,1.1,B26
24,0.9,B27
25,5410,B28
26,0.1,B29
27,0.6,B30
28,0.7,B31

# Biological target: His-tagged BACE1 protein (Example 15) (Homo sapiens (Human), UniProt P56817 22-457)
# Assay: SPR (Biacore T200), Fab on captured His-BACE1;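 also: Single-cycle kinetics with serially diluted Fab flowed over BACE1 captured by anti-His antibody on a CM5 chip, rates fitted to a one-to-one Langmuir model, Kd derived as koff over kon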
# Experimental: The binding affinity of anti-BACE1 Fab antibodies by single-cycle kinetics was determined using surface plasmon resonance (SRP) measurement with a BIAcore™ T200 instrument. Briefly, series S sensor chip CM5 was activated with EDC and NHS reagents according to the supplier's instructions, and anti-His antibody was coupled to achieve approximately 1000 response units (RU), then following by blocking un-reacted groups with 1M ethanolamine. For kinetics measurements, His-tagged BACE1 protein was first injected at 10 μl/min flow rate to capture approximately 100 RU at 3 different flow cells (FC), except for FC1 (reference), and then 5-fold serial dilutions of Fab in HBS-P buffer (0.01M HEPES pH 7.4, 0.15M NaCl, 0.005% surfactant P20) from low (0.08 nM) to high (50 nM) were injected (flow rate: 30 μl/min) one after the other in the same cycle with no regeneration between injections. The sensorgram was recorded and subject to reference and buffer subtraction before evaluating by BIAcore™ T200 Evaluation Software (version 2.0). Association rates (kon) and dissociation rates (koff) were calculated using a simple one-to-one Langmuir binding model. The equilibrium dissociation constant (Kd) was calculated as the ratio koff/kon.
# Sequence of His-tagged BACE1 protein (Example 15) (P56817 22-457 limits assumed): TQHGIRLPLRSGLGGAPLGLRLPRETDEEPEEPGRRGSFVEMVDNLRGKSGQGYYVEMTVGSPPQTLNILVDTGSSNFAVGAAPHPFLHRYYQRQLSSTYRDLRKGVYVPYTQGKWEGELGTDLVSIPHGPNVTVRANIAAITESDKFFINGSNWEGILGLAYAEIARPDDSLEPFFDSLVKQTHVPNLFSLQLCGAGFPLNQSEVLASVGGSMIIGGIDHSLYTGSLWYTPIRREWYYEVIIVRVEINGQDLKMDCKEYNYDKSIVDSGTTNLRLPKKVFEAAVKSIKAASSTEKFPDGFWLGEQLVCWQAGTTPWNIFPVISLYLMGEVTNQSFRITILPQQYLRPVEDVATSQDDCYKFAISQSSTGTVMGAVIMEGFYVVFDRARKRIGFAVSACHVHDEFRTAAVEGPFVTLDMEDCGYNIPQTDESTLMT
Kd [nM],koff [s⁻¹],kon [M⁻¹ s⁻¹],Binder
0.64,0.000495,774000,B33
